Results published in paper PMC5889621 (Proceedings of the National Academy of Sciences of the …, 2018).
Several values for one entry are separate records, joined by “and”; a condition that tells them apart may be missing. Equal values may be shown once.

T1: LMAN1/ERGIC53 (endogenous) (human (endogenous in 293A)), P49257
T1 chain: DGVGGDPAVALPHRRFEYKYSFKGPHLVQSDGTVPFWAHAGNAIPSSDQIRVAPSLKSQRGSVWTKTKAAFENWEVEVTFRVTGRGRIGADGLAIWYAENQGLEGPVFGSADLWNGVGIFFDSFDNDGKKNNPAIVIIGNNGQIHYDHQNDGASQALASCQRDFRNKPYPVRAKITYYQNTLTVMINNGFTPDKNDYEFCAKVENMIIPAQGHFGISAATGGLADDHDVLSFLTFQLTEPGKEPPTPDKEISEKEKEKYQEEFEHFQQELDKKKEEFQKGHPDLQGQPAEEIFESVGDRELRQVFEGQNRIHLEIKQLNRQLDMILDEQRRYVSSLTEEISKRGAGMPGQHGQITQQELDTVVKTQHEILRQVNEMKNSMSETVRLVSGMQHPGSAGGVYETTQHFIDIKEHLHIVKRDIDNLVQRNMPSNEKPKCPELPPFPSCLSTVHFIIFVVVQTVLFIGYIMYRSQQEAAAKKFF


What was measured:
[1] = target: T1, LMAN1/ERGIC53 (endogenous) (human …); assay: SDS/PAGE without reducing agent and immunoblot; details: remark: other sources report otherwise
[2] = target: the molecule itself; assay: SDS/PAGE without reducing agent and immunoblot

Row | stoichiometry N [1] | Binder | stoichiometry N [2]
1 | 2 and 6 | LMAN1/ERGIC53 (endogenous), P49257 31-510 (natural protein) DGVGGDPAVALPHRRFEYKYSFKGPHLVQSDGTVPFWAHAGNAIPSSDQIRVAPSLKSQRGSVWTKTKAAFENWEVEVTFRVTGRGRIGADGLAIWYAENQGLEGPVFGSADLWNGVGIFFDSFDNDGKKNNPAIVIIGNNGQIHYDHQNDGASQALASCQRDFRNKPYPVRAKITYYQNTLTVMINNGFTPDKNDYEFCAKVENMIIPAQGHFGISAATGGLADDHDVLSFLTFQLTEPGKEPPTPDKEISEKEKEKYQEEFEHFQQELDKKKEEFQKGHPDLQGQPAEEIFESVGDRELRQVFEGQNRIHLEIKQLNRQLDMILDEQRRYVSSLTEEISKRGAGMPGQHGQITQQELDTVVKTQHEILRQVNEMKNSMSETVRLVSGMQHPGSAGGVYETTQHFIDIKEHLHIVKRDIDNLVQRNMPSNEKPKCPELPPFPSCLSTVHFIIFVVVQTVLFIGYIMYRSQQEAAAKKFF | –
2 | – | Myc-LMAN1 C466A (natural protein, UniProt P49257 31-510, looked up) DGVGGDPAVALPHRRFEYKYSFKGPHLVQSDGTVPFWAHAGNAIPSSDQIRVAPSLKSQRGSVWTKTKAAFENWEVEVTFRVTGRGRIGADGLAIWYAENQGLEGPVFGSADLWNGVGIFFDSFDNDGKKNNPAIVIIGNNGQIHYDHQNDGASQALASCQRDFRNKPYPVRAKITYYQNTLTVMINNGFTPDKNDYEFCAKVENMIIPAQGHFGISAATGGLADDHDVLSFLTFQLTEPGKEPPTPDKEISEKEKEKYQEEFEHFQQELDKKKEEFQKGHPDLQGQPAEEIFESVGDRELRQVFEGQNRIHLEIKQLNRQLDMILDEQRRYVSSLTEEISKRGAGMPGQHGQITQQELDTVVKTQHEILRQVNEMKNSMSETVRLVSGMQHPGSAGGVYETTQHFIDIKEHLHIVKRDIDNLVQRNMPSNEKPKAPELPPFPSCLSTVHFIIFVVVQTVLFIGYIMYRSQQEAAAKKFF | 2
3 | – | Myc-LMAN1 C475A (natural protein, UniProt P49257 31-510, looked up) DGVGGDPAVALPHRRFEYKYSFKGPHLVQSDGTVPFWAHAGNAIPSSDQIRVAPSLKSQRGSVWTKTKAAFENWEVEVTFRVTGRGRIGADGLAIWYAENQGLEGPVFGSADLWNGVGIFFDSFDNDGKKNNPAIVIIGNNGQIHYDHQNDGASQALASCQRDFRNKPYPVRAKITYYQNTLTVMINNGFTPDKNDYEFCAKVENMIIPAQGHFGISAATGGLADDHDVLSFLTFQLTEPGKEPPTPDKEISEKEKEKYQEEFEHFQQELDKKKEEFQKGHPDLQGQPAEEIFESVGDRELRQVFEGQNRIHLEIKQLNRQLDMILDEQRRYVSSLTEEISKRGAGMPGQHGQITQQELDTVVKTQHEILRQVNEMKNSMSETVRLVSGMQHPGSAGGVYETTQHFIDIKEHLHIVKRDIDNLVQRNMPSNEKPKCPELPPFPSALSTVHFIIFVVVQTVLFIGYIMYRSQQEAAAKKFF | 2
4 | – | Myc-LMAN1 C466A C475A double mutant (natural protein, UniProt P49257 31-510, looked up) DGVGGDPAVALPHRRFEYKYSFKGPHLVQSDGTVPFWAHAGNAIPSSDQIRVAPSLKSQRGSVWTKTKAAFENWEVEVTFRVTGRGRIGADGLAIWYAENQGLEGPVFGSADLWNGVGIFFDSFDNDGKKNNPAIVIIGNNGQIHYDHQNDGASQALASCQRDFRNKPYPVRAKITYYQNTLTVMINNGFTPDKNDYEFCAKVENMIIPAQGHFGISAATGGLADDHDVLSFLTFQLTEPGKEPPTPDKEISEKEKEKYQEEFEHFQQELDKKKEEFQKGHPDLQGQPAEEIFESVGDRELRQVFEGQNRIHLEIKQLNRQLDMILDEQRRYVSSLTEEISKRGAGMPGQHGQITQQELDTVVKTQHEILRQVNEMKNSMSETVRLVSGMQHPGSAGGVYETTQHFIDIKEHLHIVKRDIDNLVQRNMPSNEKPKAPELPPFPSALSTVHFIIFVVVQTVLFIGYIMYRSQQEAAAKKFF | 2
